Mean relative activity data for 30 molecules are collected here from patent US20220259593A1, “CONTROL OF MAMMALIAN GENE DOSAGE USING CRISPR” (The Regents of the University of California, priority 2019, published 2022).

Numbering of substitutions follows the chain as printed.

To fix the notation:
B1: cr450 (nucleic acid)
guide: GTTTAAGAGCTAAGCTGGAAACAGCATAGCAAGTTTAAATAAGGCTAGTCCGTTATCAACTTGAGAAAGTGGCGCCGAGTCGGCGCT
modifications: listed as DNA, chemistry not fully specified
B2: cr612 (nucleic acid)
guide: B1 guide with A20T, G65A, G74A, C84T
modifications: listed as DNA, chemistry not fully specified
B3: cr116 (nucleic acid)
guide: B1 guide with T61G, G65A, A68C, G74A, C84T
modifications: listed as DNA, chemistry not fully specified
B4: cr284 (nucleic acid)
guide: B1 guide with G74A, G77A, C81T, C84T
modifications: listed as DNA, chemistry not fully specified
B5: cr780 (nucleic acid)
guide: B1 guide with T62G, G65A, A67C, G74A, G77T, C81A, C84T
modifications: listed as DNA, chemistry not fully specified
B6: cr703 (nucleic acid)
guide: B1 guide with A66G, G74A, C84T
modifications: listed as DNA, chemistry not fully specified
B7: cr529 (nucleic acid)
guide: B1 guide with G65A, G74A, C76T, G82A, C84T
modifications: listed as DNA, chemistry not fully specified
B8: cr421 (nucleic acid)
guide: B1 guide with G65A, A68C, G74A, C84T
modifications: listed as DNA, chemistry not fully specified
B9: cr908 (nucleic acid)
guide: B1 guide with G74A, C75T, G83A, C84T
modifications: listed as DNA, chemistry not fully specified
B10: cr546 (nucleic acid)
guide: B1 guide with C60A, G69T, G74A, C84T
modifications: listed as DNA, chemistry not fully specified
B11: cr630 (nucleic acid)
guide: B1 guide with A55G, T56C, G65A, G74A, G79C, C84T
modifications: listed as DNA, chemistry not fully specified
B12: cr719 (nucleic acid)
guide: B1 guide with G65A, G74A, C84T, C86A
modifications: listed as DNA, chemistry not fully specified
B13: cr231 (nucleic acid)
guide: B1 guide with T49A, G74A, C84T
modifications: listed as DNA, chemistry not fully specified
B14: cr577 (nucleic acid)
guide: B1 guide with A28G, A42G, A55C, G65A, G74A, C84T
modifications: listed as DNA, chemistry not fully specified
B15: cr371 (nucleic acid)
guide: B1 guide with T54C, T56G, G65A, G74A, G79C, C84T
modifications: listed as DNA, chemistry not fully specified
B16: cr375 (nucleic acid)
guide: B1 guide with G17T, G65A, G74A, C84T
modifications: listed as DNA, chemistry not fully specified
B17: cr243 (nucleic acid)
guide: B1 guide with T62C, G65A, A67G, G74C, C76T, G82A, C84G
modifications: listed as DNA, chemistry not fully specified
B18: cr285 (nucleic acid)
guide: B1 guide with C22A, G65A, G74A, C84T
modifications: listed as DNA, chemistry not fully specified
B19: cr693 (nucleic acid)
guide: B1 guide with G65A, G74T, G77A, C81T, C84A
modifications: listed as DNA, chemistry not fully specified
B20: cr718 (nucleic acid)
guide: B1 guide with A59T, G65A, T70A, G74C, C84G
modifications: listed as DNA, chemistry not fully specified
B21: cr823 (nucleic acid)
guide: B1 guide with T62A, G65A, A67T, G74A, C76T, G82A, C84T
modifications: listed as DNA, chemistry not fully specified
B22: cr553 (nucleic acid)
guide: B1 guide with A47G, G65T, G74A, C84T
modifications: listed as DNA, chemistry not fully specified
B23: cr142 (nucleic acid)
guide: B1 guide with G65A, G74A, G77T, C81A, C84T
modifications: listed as DNA, chemistry not fully specified
B24: cr953 (nucleic acid)
guide: B1 guide with G65A, G74A, A78C, C84T
modifications: listed as DNA, chemistry not fully specified
B25: cr361 (nucleic acid)
guide: B1 guide with G17C, G65A, G74A, C84T
modifications: listed as DNA, chemistry not fully specified
B26: cr822 (nucleic acid)
guide: B1 guide with T49A, G65A, A66C, G74A, C84T
modifications: listed as DNA, chemistry not fully specified
B27: cr253 (nucleic acid)
guide: B1 guide with A59G, T61C, G65A, A68G, T70C, G74A, G77T, C81A, C84T
modifications: listed as DNA, chemistry not fully specified
B28: cr576 (nucleic acid)
guide: B1 guide with T16C, G65A, G74A, C84T
modifications: listed as DNA, chemistry not fully specified
B29: cr291 (nucleic acid)
guide: B1 guide with G65A, G72C, G74A, C75T, G83A, C84T, C86G
modifications: listed as DNA, chemistry not fully specified
B30: cr983 (nucleic acid)
guide: B1 guide with G65A, C73T, G74A, C84T
modifications: listed as DNA, chemistry not fully specified

In one data set the test system is K562 CRISPRi cells. Briefly: Constant region variant library pooled growth screen, K562. The class given is cell-based, human. The settings on record: sgRNA constant region variants; activity relative to the original, un-modified constant region cr995. From the text: We calculated relative activities for each targeting sequence:constant region pair by normalizing its phenotype to that of the targeting sequence paired with the unmodified constant region, identifying 409 constant region variants that on average conferred intermediate activity (0.1-0.9, FIG. 5B). Ten variants selected for individual evaluation also mediated intermediate levels of mRNA knockdown (FIG. 6B). Mapping the activities of constant region variants with single base substitutions onto the structure recapitulated known relationships between constant region structure and function (FIG. 5C).
The sequences in the library of modified constant regions were derived from the sgRNA (F+E) optimized sequence (23) modified to include a BlpI site (15). Each modified constant region was paired with 36 sgRNA targeting sequences (3 sgRNAs targeting each of 10 essential genes and six non-targeting negative control sgRNAs). The cloning strategy (described below) allowed the mutation of most positions in the sgRNA constant region. A variety of modifications were made, including substitutions of all single bases not in the BlpI restriction site (which is used for cloning), double substitutions including all substitutions at base-paired position pairs not before or in the BlpI site, and a variety of triple, quadruple, and sextuple substitutions, including base-pair-preserving substitutions at adjacent base-pairs.
The library was ordered and cloned in two parts. One part consisted of ˜100 modifications to the eight bases upstream of the BlpI restriction site. Constant region variants with mutations in this section were paired with each of the 36 targeting sequences, ordered as a pooled oligonucleotide library (Twist Biosciences), and cloned into pCRISPRia-v2 as described above. The second part consisted of ˜900 modifications to the 71 bases downstream of the BlpI restriction site. This part was cloned in two steps. First, all 36 targeting sequences were individually cloned into pCRISPRia-v2 as described above. The vectors were then pooled at an equimolar ratio and digested with BlpI (NEB) and XhoI (NEB). The modified constant region variants were ordered as a pooled oligonucleotide library (Twist Biosciences), PCR amplified with Phusion polymerase (NEB), digested with BlpI (NEB) and XhoI (NEB), and ligated into the digested vector pool, in a manner identical to previously published protocols and as described above, except for the different restriction enzymes.
Screens with the compact mismatched sgRNA library and the constant region library were conducted largely as described above, with smaller modifications during the screening procedure and an updated sequencing library preparation protocol. Briefly, the libraries were transduced in duplicate into K562 CRISPRi (both libraries) or HeLa CRISPRi cells (compact mismatched sgRNA library) as described above. K562 replicates were maintained separately in 0.15 to 0.3 L of RPMI-1640 in 0.3 L spinner flasks for the course of the screen. HeLa replicates were maintained in sets of ten 15-cm plates. Cells were selected with puromycin as described above (K562: 1 day of 0.75 μg/mL and 1 day of 0.85 μg/mL; HeLa: 2 days of 0.8 μg/mL and 1 day of 1 μg/mL). The remainder of the screen was carried out at >1000× library coverage (K562 compact mismatched sgRNA library: >2000×; HeLa compact mismatched sgRNA library: >1000×; K562 constant region library: >2000×). Multiple samples were harvested after 4 to 8 days of growth. For the drug screen, 10 μM lovastatin (ApexBio) or an equivalent volume of DMSO (vehicle) was added to flasks at t=0, and 3 days later cells were pelleted and re-suspended in fresh medium. Lovastatin (12 μM) or DMSO was again added after 5 and 9 days of growth, with media exchanges 3 days after drug supplementation. Multiple samples were harvested after 4 to 8 days for the K562 and HeLa growth screens. […]
B1 registered a Mean relative activity of 1.064. The molecule B2 displayed a Mean relative activity of 1.064. Still for that read-out and setting: to B3 belongs 1.064.

Staying with this data set, now noted: sgRNA constant region variants; activity relative to the un-modified constant region cr995.
B4: the Mean relative activity is recorded as 0.9497.

For B5, the Mean relative activity was determined as 0.9287. On to B6, for which the Mean relative activity is 0.9472. On the same count and under the same terms, under B7 stands 0.9488; under B8, 0.9381; under B9, 0.9455. Molecule B10 had a Mean relative activity of 0.9326.

In the case of B11, the Mean relative activity stood at 0.9325. On the same count and under the same terms, under B12 stands 0.9381; under B13, 0.9485. Same read-out and setting: under B14 stands 0.9309; under B15, 0.9355; under B16, 0.9294. Still for that read-out and setting: to B17 belongs 0.9319.

B18 had a Mean relative activity of 0.9449. On the same count and under the same terms, under B19 stands 0.9369; under B20, 0.9447; under B21, 0.936. In the case of B22, the Mean relative activity was 0.9385. Still for that read-out and setting: under B23 stands 0.9406; under B24, 0.9337; under B25, 0.9312. Same read-out and setting: to B26 belongs 0.9333. Still for that read-out and setting: under B27 stands 0.9384; under B28, 0.935; under B29, 0.9321. As for B30, the Mean relative activity is given as 0.9491.
